T1: Par-3 PDZ2 (his-purified, soluble) (Drosophila, UniProt O96782 444-533)
T1 construct: Par-3 (Bazooka), Drosophila, residues 444-533; From pET19; also called soluble PDZ2; source: E. coli BL21 (DE3), his-purified
T1 sequence (looked up): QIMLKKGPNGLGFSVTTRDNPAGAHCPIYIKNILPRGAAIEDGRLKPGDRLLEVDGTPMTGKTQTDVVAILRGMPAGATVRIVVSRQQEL

T2: Par-3 PDZ3 (his-purified, soluble) (Drosophila, UniProt O96782 616-741)
T2 construct: Par-3 (Bazooka), Drosophila, residues 616-741; From pET19; source: E. coli BL21 (DE3), his-purified
T2 sequence (looked up): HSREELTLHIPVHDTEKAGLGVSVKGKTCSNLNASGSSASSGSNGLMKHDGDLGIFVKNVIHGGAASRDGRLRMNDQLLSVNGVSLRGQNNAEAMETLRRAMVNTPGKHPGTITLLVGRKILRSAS

T3: Par complex Par-6ΔPBM (Drosophila, UniProt O97111 1-343; A1Z9X0 1-606)
T3 construct: aPKC, Drosophila, residues 1-606; Construct as in PMID 32084408; also called Par complex lacking the Par-6 PBM; Par-6ΔPBM/aPKC; source: HEK 293F, transfected (pCMV), purified (Ni-NTA or cobalt resin, Source Q anion exchange)
T3 sequence (looked up) 1: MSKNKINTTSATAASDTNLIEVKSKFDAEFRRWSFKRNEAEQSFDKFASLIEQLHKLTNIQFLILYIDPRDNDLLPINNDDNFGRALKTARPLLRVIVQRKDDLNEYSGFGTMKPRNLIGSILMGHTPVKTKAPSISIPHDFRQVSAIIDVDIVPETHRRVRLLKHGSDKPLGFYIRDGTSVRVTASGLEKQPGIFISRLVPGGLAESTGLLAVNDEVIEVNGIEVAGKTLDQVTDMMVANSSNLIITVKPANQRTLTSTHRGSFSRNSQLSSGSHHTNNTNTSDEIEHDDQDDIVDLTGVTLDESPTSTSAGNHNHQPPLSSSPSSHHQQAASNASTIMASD
T3 sequence (looked up) 2: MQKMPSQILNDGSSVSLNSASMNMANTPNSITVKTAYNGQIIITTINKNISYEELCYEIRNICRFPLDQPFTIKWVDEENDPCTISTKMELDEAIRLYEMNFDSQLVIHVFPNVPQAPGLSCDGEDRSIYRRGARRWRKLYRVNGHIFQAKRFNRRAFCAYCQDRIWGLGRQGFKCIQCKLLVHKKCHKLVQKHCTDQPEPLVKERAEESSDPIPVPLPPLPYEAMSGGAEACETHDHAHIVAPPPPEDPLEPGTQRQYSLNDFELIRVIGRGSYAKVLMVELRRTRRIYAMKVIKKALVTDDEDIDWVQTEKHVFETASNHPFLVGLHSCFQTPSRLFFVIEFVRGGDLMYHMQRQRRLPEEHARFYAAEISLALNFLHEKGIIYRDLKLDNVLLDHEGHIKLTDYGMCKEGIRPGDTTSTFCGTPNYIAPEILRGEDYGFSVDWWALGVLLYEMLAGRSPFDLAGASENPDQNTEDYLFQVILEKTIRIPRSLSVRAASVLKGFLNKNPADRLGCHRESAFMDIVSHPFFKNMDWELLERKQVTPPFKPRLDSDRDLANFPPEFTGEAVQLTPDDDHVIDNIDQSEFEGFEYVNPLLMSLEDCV

T4: Par complex (his-Par-6, aPKC) (Drosophila, UniProt O97111 1-351; A1Z9X0 1-606)
T4 construct: Par-6, Drosophila, residues 1-351; atypical protein kinase C (aPKC), Drosophila, residues 1-606; Construct as in PMID 32084408; also called full Par complex; source: HEK 293F, transfected (pCMV), purified (Ni-NTA or cobalt resin, Source Q anion exchange)
T4 sequence (looked up) 1: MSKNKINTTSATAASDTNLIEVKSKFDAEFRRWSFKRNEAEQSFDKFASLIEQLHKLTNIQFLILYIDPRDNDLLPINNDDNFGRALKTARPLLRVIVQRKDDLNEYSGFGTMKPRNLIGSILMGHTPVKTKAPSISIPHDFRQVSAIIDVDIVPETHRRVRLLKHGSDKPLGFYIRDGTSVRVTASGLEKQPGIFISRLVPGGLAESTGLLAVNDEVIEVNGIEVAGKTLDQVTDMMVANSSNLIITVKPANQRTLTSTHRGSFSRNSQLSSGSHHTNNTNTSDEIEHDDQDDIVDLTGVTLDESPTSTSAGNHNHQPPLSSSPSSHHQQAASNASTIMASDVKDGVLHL
T4 sequence (looked up) 2: T3 sequence (looked up) 2

B1: GST-aPKC PBM (domain or fragment, Drosophila, UniProt A1Z9X0 583-606, looked up)
chain: NIDQSEFEGFEYVNPLLMSLEDCV
notes: From pGEX; construct as in PMID 32084408
B2: MBP-Par-3 PDZ1-APM (domain or fragment, Drosophila, UniProt O96782 309-987, looked up)
chain: DGEMLLIINEYGSPLGLTALPDKEHGGGLLVQHVEPGSRAERGQLRRDDRILEINGIKLIGLTESQVQEQLRRALESSELRVRVLRGDRNRRQQRDSKVADMVEVATVSPTRKPHAAPVGTSLQVANTRKLGRKIQIMLKKGPNGLGFSVTTRDNPAGAHCPIYIKNILPRGAAIEDGRLKPGDRLLEVDGTPMTGKTQTDVVAILRGMPAGATVRIVVSRQQELAEQADQPAEKSAGVAVAPSVAPPAVPAAAAPAPPIPVQKSSSARSLFTHQQQSQLNESQHFIDAGSESAASNDSLPPSSNSWHSREELTLHIPVHDTEKAGLGVSVKGKTCSNLNASGSSASSGSNGLMKHDGDLGIFVKNVIHGGAASRDGRLRMNDQLLSVNGVSLRGQNNAEAMETLRRAMVNTPGKHPGTITLLVGRKILRSASSSDILDHSNSHSHSHSNSSGGSNSNGSGNNNNSSSNASDNSGATVIYLSPEKREQRCNGGGGGGSAGNEMNRWSNPVLDRLTGGICSSNSAQPSSQQSHQQQPHPSQQQQQQRRLPAAPVCSSAALRNESYYMATNDNWSPAQMHLMTAHGNTALLIEDDAEPMSPTLPARPHDGQHCNTSSANPSQNLAVGNQGPPINTVPGTPSTSSNFDATYSSQLSLETNSGVEHFSRDALGRRSISEKHHA
notes: Par-3 (Bazooka), Drosophila, residues 309-987 (PDZ1 to the aPKC phosphorylation motif); From pMAL; construct as in PMID 32084408; not shown: MBP, N-terminal, kept; His tag, C-terminal, kept
B3: aPKC KD-PBM (domain or fragment, Drosophila, UniProt A1Z9X0 259-606, looked up)
chain: YSLNDFELIRVIGRGSYAKVLMVELRRTRRIYAMKVIKKALVTDDEDIDWVQTEKHVFETASNHPFLVGLHSCFQTPSRLFFVIEFVRGGDLMYHMQRQRRLPEEHARFYAAEISLALNFLHEKGIIYRDLKLDNVLLDHEGHIKLTDYGMCKEGIRPGDTTSTFCGTPNYIAPEILRGEDYGFSVDWWALGVLLYEMLAGRSPFDLAGASENPDQNTEDYLFQVILEKTIRIPRSLSVRAASVLKGFLNKNPADRLGCHRESAFMDIVSHPFFKNMDWELLERKQVTPPFKPRLDSDRDLANFPPEFTGEAVQLTPDDDHVIDNIDQSEFEGFEYVNPLLMSLEDCV
notes: From pBH; also called his aPKC kinase domain-PBM; aPKC kinase domain–PBM; source: E. coli BL21 (DE3), his-purified (Ni-NTA) partially under denaturing conditions (8 M urea)

Key:
Details in all cases: both partners purified
MBP-Par-3 PDZ1-APM [1] = target: B2; assay: pull-down; GST-aPKC PBM on glutathione resin with Par-3 PDZ1-APM and the Par complex as soluble proteins; room temperature, 30 to 60 min; 10 mM Hepes pH 7.5, 100 mM NaCl, 1 mM DTT, 200 μM ATP, 5 mM MgCl2, 0.1% Tween-20; Coomassie gel
[2] = target: T1, Par-3 PDZ2 (his-purified, soluble); assay: supernatant depletion assay; GST-fused protein on glutathione agarose resin (solid phase, 'ligand'); soluble protein ('receptor') left in the supernatant at equilibrium quantified on a Coomassie gel; 1 h at 20 °C; 10 mM Hepes pH 7.5, 100 mM NaCl, 1 mM DTT, 200 μM ATP, 5 mM MgCl2, 0.1% Tween-20; single-site equation; 'apparent' for Par-3 variants that could bind more than one Par complex; ATP replaced with ADP in one …
[3] = target: T2, Par-3 PDZ3 (his-purified, soluble); assay: as above
Par complex Par-6ΔPBM = target: T3, Par complex Par-6ΔPBM; assay: supernatant depletion assay; MBP-Par-3 (C-terminal his-tag, his-purified) on amylose resin (solid phase); soluble protein left in the supernatant quantified on a Coomassie gel; 10 min at 20 °C; 10 mM Hepes pH 7.5, 100 mM NaCl, 1 mM DTT, 200 μM ATP, 5 mM MgCl2, 0.1% Tween-20; 'apparent'
[4] = target: T4, Par complex (his-Par-6, aPKC); assay: as above
MBP-Par-3 PDZ1-APM [5] = target: B2; assay: as above

## B1
MBP-Par-3 PDZ1-APM [1]
  binding result: binds
[2]
  binding result: binds
[3]
  binding result: binds

## B2
Par complex Par-6ΔPBM
  binding result: binds
[4]
  binding result: binds

## B3
MBP-Par-3 PDZ1-APM [5]
  binding result: binds

— PMC9352551, “Energetic determinants of animal cell polarity regulator Par-3 interaction with the Par complex” (The Journal of Biological Chemistry, 2022)
